We go through 15 molecules from patent US20250382344A1, “Soluble GLP1/GIP/NPY2 Receptor Triple Agonists” (Boehringer Ingelheim International GmH, priority 2024, published 2025).

Assay in all cases: cell-based or functional assay
For assay [1], the target named is human GLP-1 receptor (human, UniProt P43220 24-463).
For assay [2], the target named is T1, human GIP receptor (human, UniProt P48546 22-466).
T1 sequence (looked up): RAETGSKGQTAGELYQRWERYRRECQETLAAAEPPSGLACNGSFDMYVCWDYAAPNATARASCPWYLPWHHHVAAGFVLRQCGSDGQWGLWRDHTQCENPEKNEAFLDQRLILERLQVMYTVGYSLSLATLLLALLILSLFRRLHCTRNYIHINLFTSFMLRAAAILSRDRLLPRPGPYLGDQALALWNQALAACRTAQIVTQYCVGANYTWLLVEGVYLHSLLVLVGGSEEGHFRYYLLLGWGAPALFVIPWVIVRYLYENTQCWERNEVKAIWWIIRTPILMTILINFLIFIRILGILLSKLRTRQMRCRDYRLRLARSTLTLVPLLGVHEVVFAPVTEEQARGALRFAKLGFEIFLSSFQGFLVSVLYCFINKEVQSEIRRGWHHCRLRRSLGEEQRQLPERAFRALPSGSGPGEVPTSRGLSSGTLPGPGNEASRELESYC

The target of assay [3] is T2, human neuropeptide Y2 receptor (human, UniProt P49146 1-381).
T2 sequence (looked up): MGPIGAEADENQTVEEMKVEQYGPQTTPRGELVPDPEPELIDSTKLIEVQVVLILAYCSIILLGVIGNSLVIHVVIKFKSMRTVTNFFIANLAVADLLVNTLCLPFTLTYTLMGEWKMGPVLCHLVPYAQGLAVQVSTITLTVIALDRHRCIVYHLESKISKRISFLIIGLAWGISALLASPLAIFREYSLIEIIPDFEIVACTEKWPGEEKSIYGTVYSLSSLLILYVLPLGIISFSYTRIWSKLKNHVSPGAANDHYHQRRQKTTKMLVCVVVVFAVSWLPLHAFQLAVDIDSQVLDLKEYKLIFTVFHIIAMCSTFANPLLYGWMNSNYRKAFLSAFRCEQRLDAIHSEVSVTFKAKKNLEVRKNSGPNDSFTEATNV

*1 amine or outer side, *2 acyl side, *3 side chain or, on linkers, in order; H or OH if unused. Where no end group is shown, it is not given here. Side-chain parts run from the residue outwards. [ ]: non-standard residue; d: D form. The star is where a group is joined. C20 diacid = O=C(O)CCCCCCCCCCCCCCCCCCC(=O)*; C18 diacid = O=C(O)CCCCCCCCCCCCCCCCC(=O)*; γGlu = O=C(O)[C@H](CCC(=O)[*:2])N[*:1]; εLys = N[C@@H](CCCCN[*:1])C(=O)[*:2]; NMeQ = CN[C@@H](CCC(N)=O)C(=O)O; dtOrn = not defined here; AEEA = NCCOCCOCC(=O)O; Aib = CC(C)(N)C(=O)O

B1: Compound 166 (peptide)
peptide: Y[Aib]EGTFTSDLSI[Aib]LEKQAQ[Aib]AFVRHLINK([γGlu-γGlu-εLys-γGlu-γGlu-γGlu-γGlu-C20 diacid])[Aib]TRQRY-NH2
Take B1: the “EC50, CreLuc reporter, 0.5% hP” value in assay [1] worked out at 8 nM; in assay [2], 0.6 nM.

B2: Compound 97 (peptide)
peptide: Y[Aib]EGTFTSDYSI[Aib]LEKQAQ[Aib]AFVRHLINK([dtOrn-γGlu-γGlu-γGlu-γGlu-γGlu-γGlu-C20 diacid])[Aib]TRQRY-NH2
modifications: reading uncertain
Regarding B2, the “EC50, CreLuc reporter, 0.5% hP” value in assay [1] came to 3.8 nM; in assay [3] it was 11.7 nM. Moreover, the results for the “EC50, CreLuc reporter, 100% hP” value in assay [1], in assay [3] and in assay [2] were 16.8 nM, 135 nM and 12.7 nM, respectively.

B3: Compound 114 (peptide)
peptide: Y[Aib]EGTFTSDYSI[Aib]LEKQAQ[Aib]AFVRHLINK([γGlu-γGlu-γGlu-γGlu-γGlu-γGlu-C20 diacid])[Aib]TR[NMeQ]RY-NH2
modifications: N-terminus assumed
SMILES: CC[C@H](C)[C@H](NC(=O)[C@H](CC(C)C)NC(=O)[C@H](Cc1c[nH]cn1)NC(=O)[C@H](CCCNC(=N)N)NC(=O)[C@@H](NC(=O)[C@H](Cc1ccccc1)NC(=O)[C@H](C)NC(=O)C(C)(C)NC(=O)[C@H](CCC(N)=O)NC(=O)[C@H](C)NC(=O)[C@H](CCC(N)=O)NC(=O)[C@H](CCCCN)NC(=O)[C@H](CCC(=O)O)NC(=O)[C@H](CC(C)C)NC(=O)C(C)(C)NC(=O)[C@@H](NC(=O)[C@H](CO)NC(=O)[C@H](Cc1ccc(O)cc1)NC(=O)[C@H](CC(=O)O)NC(=O)[C@H](CO)NC(=O)[C@@H](NC(=O)[C@H](Cc1ccccc1)NC(=O)[C@@H](NC(=O)CNC(=O)[C@H](CCC(=O)O)NC(=O)C(C)(C)NC(=O)[C@@H](N)Cc1ccc(O)cc1)[C@@H](C)O)[C@@H](C)O)[C@@H](C)CC)C(C)C)C(=O)N[C@@H](CC(N)=O)C(=O)N[C@@H](CCCCNC(=O)CC[C@H](NC(=O)CC[C@H](NC(=O)CC[C@H](NC(=O)CC[C@H](NC(=O)CC[C@H](NC(=O)CC[C@H](NC(=O)CCCCCCCCCCCCCCCCCCC(=O)O)C(=O)O)C(=O)O)C(=O)O)C(=O)O)C(=O)O)C(=O)O)C(=O)NC(C)(C)C(=O)N[C@H](C(=O)N[C@@H](CCCNC(=N)N)C(=O)N(C)[C@@H](CCC(N)=O)C(=O)N[C@@H](CCCNC(=N)N)C(=O)N[C@@H](Cc1ccc(O)cc1)C(N)=O)[C@@H](C)O
In the case of B3, the “EC50, CreLuc reporter, 0.5% hP” value in assay [1] stood at 1.8 nM; in assay [3], 82.1 nM; in assay [2] it was 0.5 nM. Moreover, the results for the “EC50, CreLuc reporter, 100% hP” value in assay [1] and in assay [3] were 10 nM and 657 nM, respectively.

B4: Compound 88 (peptide)
peptide: YXEGTFTSDYSIXLEKQAQXAFIRHLINKXTRQRY
modifications: Aib at 2, 13, 20, 30; Lys29 epsilon-amino: C18DA-gGlu-gGlu-gGlu-gGlu-gGlu-gGlu-eLys; C-terminal amide
Turning to B4, the “EC50, CreLuc reporter, 0.5% hP” value is 0.2 nM in assay [1] and 0.1 nM in assay [2]. Besides, the “EC50, CreLuc reporter, 100% hP” value in assay [1] turned out to be 1.8 nM; in assay [3] it was 30.9 nM; in assay [2], 1.7 nM.

B5: Compound 101 (peptide)
peptide: YXEGTFTSDYSIXLEKQAQXAFVRHLINKXTRQRY
modifications: Aib at 2, 13, 20, 30; Lys29 epsilon-amino: C20DA-gGlu-gGlu-gGlu-gGlu-gGlu-gGlu-gGlu; C-terminal amide
Take B5: the “EC50, CreLuc reporter, 100% hP” value in assay [1] was determined as 20 nM. Moreover, in assay [2], the “EC50, CreLuc reporter, 0.5% hP” value turned out to be 1 nM.

B6: Compound 91 (peptide)
peptide: YXEGTFTSDYSIXLEKQRQXAFVRHLINKXTRQRY
modifications: Aib at 2, 13, 20, 30; Lys29 epsilon-amino: C18DA-gGlu-gGlu-gGlu-gGlu-gGlu-gGlu-eLys; C-terminal amide
Consider B6, for which the entries for the “EC50, CreLuc reporter, 100% hP” value in assay [1], in assay [3] and in assay [2] were 13.7 nM, 45.2 nM and 14.4 nM, respectively. The “EC50, CreLuc reporter, 0.5% hP” value in assay [3] was determined as 9.7 nM; in assay [2] it was 0.8 nM.

B7: Compound 128 (peptide)
peptide: YXEGTFTSDYSIXLEKQAQXAFVRALINKXTRQRY
modifications: Aib at 2, 13, 20, 30; Lys29 epsilon-amino: C18DA-gGlu-gGlu-gGlu-gGlu-gGlu-gGlu-eLys; C-terminal amide
On to B7, for which, in assay [1], the “EC50, CreLuc reporter, 0.5% hP” value amounted to 0.7 nM and the “EC50, CreLuc reporter, 100% hP” value was determined as 4 nM. Further, in assay [2], the “EC50, CreLuc reporter, 0.5% hP” value was found to be 0.2 nM and the “EC50, CreLuc reporter, 100% hP” value was determined as 5.7 nM.

B8: Compound 112 (peptide)
peptide: YXEGTFTSDYSEXLEKQAQXAFVRHLINKXTRQRY
modifications: Aib at 2, 13, 20, 30; Lys29 epsilon-amino: C18DA-gGlu-gGlu-gGlu-gGlu-gGlu-gGlu-eLys; C-terminal amide
Turning to B8, the “EC50, CreLuc reporter, 100% hP” value came to 31.6 nM in assay [1], 27.9 nM in assay [3] and 10.3 nM in assay [2]. Besides, the “EC50, CreLuc reporter, 0.5% hP” value in assay [2] was found to be 0.5 nM.

B9: Compound 119 (peptide)
peptide: YXEGTFTSDYSIXLEKQAQXAFVRHLINKXTRQRY
modifications: Aib at 2, 20, 30; aMeL at 13; Lys29 epsilon-amino: C18DA-gGlu-gGlu-gGlu-gGlu-gGlu-gGlu-eLys; C-terminal amide
For the molecule B9, the “EC50, CreLuc reporter, 0.5% hP” value in assay [1] was determined as 0.1 nM. Moreover, the “EC50, CreLuc reporter, 100% hP” value in assay [3] was 43.7 nM; in assay [2], 0.8 nM.

B10: Compound 124 (peptide)
peptide: YXEGTFTSDYSIXLERQAQXAFVRHLINKXTRQRY
modifications: Aib at 2, 13, 20, 30; Lys29 epsilon-amino: C18DA-gGlu-gGlu-gGlu-gGlu-gGlu-gGlu-eLys; C-terminal amide
B10: the “EC50, CreLuc reporter, 0.5% hP” value in assay [1] came out at 0.5 nM. In addition, in assay [2], the “EC50, CreLuc reporter, 0.5% hP” value was 0.1 nM and the “EC50, CreLuc reporter, 100% hP” value was found to be 4 nM.

B11: Compound 116 (peptide)
peptide: YXEGTFTSDYSIXLEKQAQXAFVRHLINKXTRQRY
modifications: Aib at 2, 13, 20, 30; NMeY at 35; Lys29 epsilon-amino: C18DA-gGlu-gGlu-gGlu-gGlu-gGlu-gGlu-eLys; C-terminal amide
For the molecule B11, the “EC50, CreLuc reporter, 0.5% hP” value in assay [1] amounted to 2 nM. Further, the “EC50, CreLuc reporter, 100% hP” value in assay [2] stood at 3.4 nM.

B12: Compound 164 (peptide)
peptide: YXEGTFTSDYSIXLEKEAQXAFVRHLINKXTRQRY
modifications: Aib at 2, 13, 20, 30; Lys29 epsilon-amino: C18DA-gGlu-gGlu-gGlu-gGlu-gGlu-gGlu-eLys; C-terminal amide
In the case of B12, the results for the “EC50, CreLuc reporter, 0.5% hP” value in assay [1] and in assay [2] were 0.6 nM and 0.4 nM, respectively.

B13: Compound 96 (peptide)
peptide: YXEGTFTSDYSIXLEKQAQXAFVRHLINKXTRQXY
modifications: Aib at 2, 13, 20, 30; dOR at 34; Lys29 epsilon-amino: C18DA-gGlu-gGlu-gGlu-gGlu-gGlu; C-terminal amide
B13: the entries for the “EC50, CreLuc reporter, 0.5% hP” value in assay [1], in assay [3] and in assay [2] were 0.9 nM, 23 nM and 0.3 nM, respectively. Also, the figures for the “EC50, CreLuc reporter, 100% hP” value in assay [1], in assay [3] and in assay [2] were 1.7 nM, 125 nM and 1.7 nM, respectively.

B14: Compound 109 (peptide)
peptide: YXEGTFTSDYSIXLEKQAQXAFIRHLINKXTRQRY
modifications: Aib at 2, 13, 20, 30; Lys29 epsilon-amino: C20DA-gGlu-gGlu-gGlu-gGlu-gGlu-gGlu-eLys; C-terminal amide
Consider B14, for which the “EC50, CreLuc reporter, 0.5% hP” value in assay [1] amounted to 0.8 nM; in assay [2] it was 0.3 nM.

B15: Compound 110 (peptide)
peptide: Y[Aib]EGTFTSDYSI[Aib]LEKQAQ[Aib]AFVRHLINK([AEEA-γGlu-γGlu-γGlu-γGlu-C18 diacid])[Aib]TRQRY-NH2
modifications: N-terminus assumed
SMILES: CC[C@H](C)[C@H](NC(=O)[C@H](CC(C)C)NC(=O)[C@H](Cc1c[nH]cn1)NC(=O)[C@H](CCCNC(=N)N)NC(=O)[C@@H](NC(=O)[C@H](Cc1ccccc1)NC(=O)[C@H](C)NC(=O)C(C)(C)NC(=O)[C@H](CCC(N)=O)NC(=O)[C@H](C)NC(=O)[C@H](CCC(N)=O)NC(=O)[C@H](CCCCN)NC(=O)[C@H](CCC(=O)O)NC(=O)[C@H](CC(C)C)NC(=O)C(C)(C)NC(=O)[C@@H](NC(=O)[C@H](CO)NC(=O)[C@H](Cc1ccc(O)cc1)NC(=O)[C@H](CC(=O)O)NC(=O)[C@H](CO)NC(=O)[C@@H](NC(=O)[C@H](Cc1ccccc1)NC(=O)[C@@H](NC(=O)CNC(=O)[C@H](CCC(=O)O)NC(=O)C(C)(C)NC(=O)[C@@H](N)Cc1ccc(O)cc1)[C@@H](C)O)[C@@H](C)O)[C@@H](C)CC)C(C)C)C(=O)N[C@@H](CC(N)=O)C(=O)N[C@@H](CCCCNC(=O)COCCOCCNC(=O)CC[C@H](NC(=O)CC[C@H](NC(=O)CC[C@H](NC(=O)CC[C@H](NC(=O)CCCCCCCCCCCCCCCCC(=O)O)C(=O)O)C(=O)O)C(=O)O)C(=O)O)C(=O)NC(C)(C)C(=O)N[C@H](C(=O)N[C@@H](CCCNC(=N)N)C(=O)N[C@@H](CCC(N)=O)C(=O)N[C@@H](CCCNC(=N)N)C(=O)N[C@@H](Cc1ccc(O)cc1)C(N)=O)[C@@H](C)O
Turning to B15, the “EC50, CreLuc reporter, 0.5% hP” value in assay [1] was found to be 0.7 nM; in assay [3] it was 14.2 nM. Moreover, the “EC50, CreLuc reporter, 100% hP” value is 2.3 nM in assay [1], 51.4 nM in assay [3] and 3.8 nM in assay [2].
